Reference: US10662230B2, “Cyclic RGD cell-binding motif and uses thereof” (Spiber Technologies AB, priority 2015, dated 2020)
“Also recorded” adds a separate entry of the source.

Experiments:
[1] = system: Human mesenchymal stem cells (hMSC); experiment: Early attachment assay, mesenchymal stem cells on silk films; type: cell-based; conditions: MSC, 1 h adhesion to film
Method: Human mesenchymal stem cells (hMSC, Gibco) from bone marrow were grown in culture flasks coated with CELLstart (Gibco) in complete StemPro MSC serum free medium CTS (Gibco) containing […] fibroblast growth factor […] (Gibco) and 2 mM Glutamax (Gibco).
(§1) Cells were harvested at passage 3-8, seeded at 20 000/cm^2 and allowed to adhere to the films or controls for 1 h in a cell incubator before gentle washing twice with pre-warmed phosphate buffered saline (PBS) followed by 10 min fixation with 96% ethanol. After three washings in water, cells were stained for 30 min with 0.1% Crystal Violet in H2O. Plates were dried after extensive washing in water.
Attachment and morphology of cells bound to the films obtained in Example 3 were documented by taking micrographs at 2× and 10× magnification in an inverted bright field microscope. The color was then dissolved in 40 μL 20% acetic acid for 10 min, and 35 μL of the solution was transferred to a 384-well plate for optical density measurement at 595 nm (TECAN Infinite M200). Wells with cells fixed without pre-washing was used as positive control. Wells with no cells were used as blank. Experiments were run in hexaplicates and repeated three times. […]

[2] = system: Normal human epidermal keratinocytes (KC); experiment: Early attachment assay, keratinocytes on silk films; type: cell-based
Method: Normal human epidermal keratinocytes from adult skin (NHEK-ad) were purchased from Lonza. Subculture, proliferation and migration experiments were done in KGM-Gold (Lonza), containing bovine pituitary extract, whereas adhesion experiments were performed in KGM-CD (chemically defined), supplemented with CaCl2) to give 1.2 mM Ca^2+.
as §1
Attachment and morphology of cells bound to the films obtained in Example 3 were documented by taking micrographs at 2× and 10× magnification in an inverted bright field microscope. The color was then dissolved in 40 μL 20% acetic acid for 10 min, and 35 μL of the solution was transferred to a 384-well plate for optical density measurement at 595 nm (TECAN Infinite M200). Wells with cells fixed without pre-washing was used as positive control. Wells with no cells were used as blank. Experiments were run in hexaplicates and repeated three times.
Determination of cell coverage area within a defined region (9.12 mm^2) of the micrographs (at 2× magnification) was done using the software NIS elements BR (Nikon).
After seeing this positive effect of the introduced FNCC motif, we wanted to find out how well the FNCC-silk would compare to native, full length fibronectin, where the RGD is presented on a turn loop constrained by the structure. We therefore used fibronectin from bovine plasma (BFN) to coat cell culture wells, as well as naked cell culture treated plastic (TCT), on which KC can be cultured, as a control. Serum-free experimental conditions was chosen to avoid possible interactions between the matrices and serum proteins that potentially could give rise to increased cell adherence.
For this purpose, we used two FN-silk variants where a linear RGD presentation is expected (FIG. 1a). The first variant (FNVS; SEQ ID NO: 15), contains the original sequence of the RGD-containing motif in fibronectin, to show the effect of the native flanking amino acids without influence of the loop conformation. In the second variant (FNSS; SEQ ID NO: 14), the two flanking cysteines in FNCC were substituted for serine, which resembles cysteine but lacks the —SH-group and is therefore unable to form disulfide bridges. The different FN-silk variants, as well as RGD-silk (SEQ ID NO: 16) and WT-silk (SEQ ID NO: 2), were evaluated with primary KC. Cells were analyzed both for early attachment (FIG. 5), spreading and formation of stress fibers (FIG. 6), and focal adhesions (FIG. 7). Early attachment assay and cellular stainings were performed as detailed in Example 6.

integrin α5β1 = target: T1, integrin α5β1 (Homo sapiens, UniProt P05556+P08648); experiment: Engagement of integrin α5β1 in KC (SNAKA-51/HUTS-4 staining); type: cell-based; conditions: KC adhering for 3 h
T1 construct: endogenous in cells; host or cells: human primary keratinocytes (KC)
Method: Primary antibody were used at the following concentrations in 1% BSA: mouse anti human vinculin (Sigma V9131) at 9.5 μg/ml, mouse-anti human beta1-integrin (activated conformation, clone HUTS-4) at 3.3 μg/mL, or mouse-anti human alpha5-integrin (ligand bound conformation, clone SNAKA-51) at 2.5 μg/mL, both Millipore.
Since the integrin α5β1 is known to selectively bind to fibronectin, we decided to investigate if this integrin is involved in the binding of KC to FNCC-silk (SEQ ID NO: 13). To do this, we selected two monoclonal antibodies, developed to specifically recognize the ligand bound conformation of α5 integrin (SNAKA-51) and the activated conformation of β1 integrin (HUTS-4), respectively, and used them in combination for staining of KC adhering to FNCC-silk for 3 h, in combination with staining with phalloidin for F-actin, as set out in Examples 6-7.

[3] = system: primary keratinocytes (NHEK); experiment: Cell viability analysis with Alamar Blue; type: cell-based, human; conditions: seeding 3 500 cells/cm^2, day 3 and day 6
Method: For microscopic studies, the proteins were casted as films in chamber glass slides (LabTekII). For Alamar blue experiments, where whole well coverage is desired, the cell culture wells were coated with a covering protein solution of 0.3 mg/ml for 2 h before the liquid was removed. Films and coated surfaces were allowed to dry over night at 25° C. and 30% rh under sterile conditions, then washed twice with sterile 20 mM phosphate buffer, pH 7.4, and pre-incubated with complete cell culture medium for 1 h at 37° C. with 5% CO2 before cell seeding.
Cell growth of primary keratinocytes (NHEK) after initial low seeding density 3 500 cells/cm^2 on wells coated with films of WT-silk (SEQ ID NO: 2) or FNCC-silk (SEQ ID NO: 13) in 96-well plates was monitored with Alamar Blue cell viability assay (Molecular Probes) every third day during the culture period. After 4 h incubation with Alamar blue (diluted 1:10 in cell culture medium), fluorescence intensity of 90 μL supernatants from the cultures was measured with a fluorescence plate reader (CLARIOstar, BMG Labtech) using excitation at 544 nm and emission at 595 nm. Two independent experiments were performed where films were analysed in hexaplicates. Fluorescence intensities, correlating the number of living cells in each well, were plotted over time to yield growth profiles of cells seeded on silk with different cell binding motifs.

T1 sequence (P08648 42-894 limits assumed): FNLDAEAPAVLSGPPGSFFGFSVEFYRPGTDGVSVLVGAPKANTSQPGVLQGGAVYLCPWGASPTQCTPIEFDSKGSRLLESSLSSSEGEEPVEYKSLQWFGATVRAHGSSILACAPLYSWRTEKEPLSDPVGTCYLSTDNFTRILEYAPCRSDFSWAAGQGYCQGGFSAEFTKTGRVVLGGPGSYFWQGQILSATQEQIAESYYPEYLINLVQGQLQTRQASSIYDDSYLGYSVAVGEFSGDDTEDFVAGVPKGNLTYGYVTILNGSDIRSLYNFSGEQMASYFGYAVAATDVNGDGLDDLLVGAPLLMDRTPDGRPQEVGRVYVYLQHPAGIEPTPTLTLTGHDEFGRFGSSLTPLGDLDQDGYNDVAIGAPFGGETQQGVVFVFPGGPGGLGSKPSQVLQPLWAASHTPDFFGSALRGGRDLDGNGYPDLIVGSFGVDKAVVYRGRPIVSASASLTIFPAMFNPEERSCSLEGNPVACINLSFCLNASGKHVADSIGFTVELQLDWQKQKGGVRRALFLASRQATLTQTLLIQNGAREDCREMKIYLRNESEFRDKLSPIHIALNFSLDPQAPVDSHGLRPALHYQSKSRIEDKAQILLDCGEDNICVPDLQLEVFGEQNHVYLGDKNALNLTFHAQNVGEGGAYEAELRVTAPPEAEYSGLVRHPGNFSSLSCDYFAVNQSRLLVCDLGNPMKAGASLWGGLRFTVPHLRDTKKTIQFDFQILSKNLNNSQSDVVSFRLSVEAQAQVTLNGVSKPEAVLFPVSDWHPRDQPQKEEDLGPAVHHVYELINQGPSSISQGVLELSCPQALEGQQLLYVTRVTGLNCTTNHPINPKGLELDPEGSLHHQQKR
T1 sequence (P08648 895-1049 partner limits assumed): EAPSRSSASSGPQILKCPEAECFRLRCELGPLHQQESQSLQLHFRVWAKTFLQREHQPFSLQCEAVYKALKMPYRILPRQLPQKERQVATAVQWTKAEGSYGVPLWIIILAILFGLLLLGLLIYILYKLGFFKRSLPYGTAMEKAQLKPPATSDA
T1 sequence (P05556 21-798): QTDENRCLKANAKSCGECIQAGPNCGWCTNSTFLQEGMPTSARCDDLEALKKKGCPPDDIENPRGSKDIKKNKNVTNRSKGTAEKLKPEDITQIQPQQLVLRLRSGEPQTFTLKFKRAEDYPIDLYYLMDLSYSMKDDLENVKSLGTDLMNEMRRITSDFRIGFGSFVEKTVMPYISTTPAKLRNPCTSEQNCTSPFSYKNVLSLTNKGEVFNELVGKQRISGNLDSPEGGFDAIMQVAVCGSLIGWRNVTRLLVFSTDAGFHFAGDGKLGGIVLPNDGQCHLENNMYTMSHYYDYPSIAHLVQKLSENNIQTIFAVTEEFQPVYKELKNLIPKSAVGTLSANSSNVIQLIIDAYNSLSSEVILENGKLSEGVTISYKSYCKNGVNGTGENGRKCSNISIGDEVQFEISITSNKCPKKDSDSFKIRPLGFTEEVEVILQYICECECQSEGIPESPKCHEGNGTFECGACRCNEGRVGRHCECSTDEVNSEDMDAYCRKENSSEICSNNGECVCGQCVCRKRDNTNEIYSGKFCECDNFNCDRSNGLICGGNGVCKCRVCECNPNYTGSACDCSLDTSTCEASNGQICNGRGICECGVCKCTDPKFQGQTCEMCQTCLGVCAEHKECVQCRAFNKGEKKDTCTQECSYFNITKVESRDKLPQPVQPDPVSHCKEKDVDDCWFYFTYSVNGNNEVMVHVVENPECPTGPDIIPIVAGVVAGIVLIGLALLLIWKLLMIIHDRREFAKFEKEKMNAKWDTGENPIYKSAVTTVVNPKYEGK

B1: FNCC-silk: recombinant spider silk protein 4RepCT with N-terminal cysteine-looped RGD motif CTGRGDSPAC (SEQ ID NO: 10) (protein)
chain: GPNSCTGRGDSPACGSASGQGGYGGLGQGGYGQGAGSSAAAAAAAAAAAAGGQGGQGQGGYGQGSGGSAAAAAAAAAAAAAAAGRGQGGYGQGSGGNAAAAAAAAAAAAAAAGQGGQGGYGRQSQGAGSAAAAAAAAAAAAAAGSGQGGYGGQGQGGYGQSSASASAAASAASTVANSVSRLSSPSAVSRVSSAVSSLVSNGQVNMAALPNIISNISSSVSASAPGASGCEVIVQALLEVITALVQIVSSSSVGYINPSAVNQITNVVANAMAQVMG
modifications: cyclic disulfide loop; Fusion protein; DISULFID (5)..(14)
attachment seen in micrographs ([1]; crystal violet staining): clear improvement of attachment is seen on the FNCC films compared to both RGD and WT | OD of crystal violet dissolved from adhered cells (number of bound cells) ([1]; seeding 20 000/cm2, serum-free): significantly more cells had bound to the FNCC-silk after 1 h compared to WT silk | adhesion in each individual experiment ([2]; KC on tested silk films): most efficient adhesion of the tested films | attachment seen in micrographs ([2]; KC, 1 h adhesion to film, crystal violet staining): clear improvement of attachment is seen on the FNCC films compared to both RGD and WT | cell coverage area within a defined region (9.12 mm^2) ([2]; KC, 1 h adhesion to silk films, seeding 20 000/cm2): increased attachment (i.e. area covered by cells) compared to both FNSS and FNVS; also recorded: significantly higher adhesion of KC compared to RGD-silk | cell coverage area within a defined region (9.12 mm^2) ([2]; KC, 1 h adhesion to silk films, seeding 20 000/cm2, listed as FNCC): significantly larger than on both WT- and RGD-silk | cell coverage area within a defined region (9.12 mm^2) ([2]; KC, 1 h adhesion, comparison with bovine fibronectin coating and TCT plastic, serum-free): bound equally well to the BFN and the FNCC-silk after 1 h adherence, and importantly both significantly better than TCT | OD of dissolved crystal violet ([2]; KC, 1 h adhesion, pooled data from 8 experiments (data not shown)): very similar results | effect of reducing agents added to the silk solution before films were casted ([2]; KC, DTT, β-mercaptoethanol or TCEP added): no differences compared to non-reduced FNCC film were detected | staining for ligand bound α5 integrin and activated β1 integrin (integrin α5β1): week but distinct staining pattern resembling the pattern seen when staining for vinculin | level of viable cells (Alamar Blue fluorescence) [3]: increased level of viable cells on FNCC-silk compared to WT-silk
